Experimental data: IntAct's records for PubMed 16762039

B1: Hypermethylated in cancer 1 protein (Homo sapiens), Q14526 (parent)
chain: MTFPEADILLKSGECAGQTMLDTMEAPGHSRQLLLQLNNQRTKGFLCDVIIVVQNALFRAHKNVLAASSAYLKSLVVHDNLLNLDHDMVSPAVFRLVLDFIYTGRLADGAEAAAAAAVAPGAEPSLGAVLAAASYLQIPDLVALCKKRLKRHGKYCHLRGGGGGGGGYAPYGRPGRGLRAATPVIQACYPSPVGPPPPPAAEPPSGPEAAVNTHCAELYASGPGPAAALCASERRCSPLCGLDLSKKSPPGSAAPERPLAERELPPRPDSPPSAGPAAYKEPPLALPSLPPLPFQKLEEAAPPSDPFRGGSGSPGPEPPGRPDGPSLLYRWMKHEPGLGSYGDELGRERGSPSERCEERGGDAAVSPGGPPLGLAPPPRYPGSLDGPGAGGDGDDYKSSSEETGSSEDPSPPGGHLEGYPCPHLAYGEPESFGDNLYVCIPCGKGFPSSEQLNAHVEAHVEEEEALYGRAEAAEVAAGAAGLGPPFGGGGDKVAGAPGGLGELLRPYRCASCDKSYKDPATLRQHEKTHWLTRPYPCTICGKKFTQRGTMTRHMRSHLGLKPFACDACGMRFTRQYRLTEHMRIHSGEKPYECQVCGGKFAQQRNLISHMKMHAVGGAAGAAGALAGLGGLPGVPGPDGKGKLDFPEGVFAVARLTAEQLSLKQQDKAAAAELLAQTTHFLHDPKVALESLYPLAKFTAELGLSPDKAAEVLSQGAHLAAGPDGRTIDRFSPT

Variants of: B1
Conditions: with ctbp2_mouse Ctbp2, P56546
Sequence of ctbp2_mouse Ctbp2, P56546 (P56546 whole entry): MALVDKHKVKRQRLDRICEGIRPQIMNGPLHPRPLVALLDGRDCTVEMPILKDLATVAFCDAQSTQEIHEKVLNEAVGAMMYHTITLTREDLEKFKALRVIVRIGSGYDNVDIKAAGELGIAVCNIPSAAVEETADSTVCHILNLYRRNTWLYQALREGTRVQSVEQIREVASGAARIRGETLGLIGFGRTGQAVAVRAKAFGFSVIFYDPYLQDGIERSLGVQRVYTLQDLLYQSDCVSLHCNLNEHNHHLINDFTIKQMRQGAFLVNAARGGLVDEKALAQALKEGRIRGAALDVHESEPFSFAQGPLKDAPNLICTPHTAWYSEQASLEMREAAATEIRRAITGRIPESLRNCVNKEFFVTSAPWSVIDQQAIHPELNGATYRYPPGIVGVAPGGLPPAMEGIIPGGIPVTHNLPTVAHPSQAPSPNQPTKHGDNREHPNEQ

| Variant | effect of a mutation on the interaction |
| --- | --- |
| L244A | disrupting interaction |

Variants of: B1
Conditions: with ctbp1_mouse Ctbp1, O88712

| Variant | effect of a mutation on the interaction |
| --- | --- |
| L244A | disrupting interaction |
